Experimental findings from PMC8352909 are described below.

Experiment [1] deals with Fc-tagged human IL-2 receptor beta subunit extracellular domain (hIL-2 Rb-Fc) (human) (UniProt P14784).
For experiment [2], the target named is Fc-tagged human IL-2 receptor alpha subunit extracellular domain (hIL-2 Ra-Fc) (human) (UniProt P01589).
The target of experiment [3] is Fc-tagged human IL-2 receptor subunit alpha, extracellular domain (hIL-2 Ra-Fc) (human) (UniProt P01589).

Chain of UniProt P14784 (P14784 27-240): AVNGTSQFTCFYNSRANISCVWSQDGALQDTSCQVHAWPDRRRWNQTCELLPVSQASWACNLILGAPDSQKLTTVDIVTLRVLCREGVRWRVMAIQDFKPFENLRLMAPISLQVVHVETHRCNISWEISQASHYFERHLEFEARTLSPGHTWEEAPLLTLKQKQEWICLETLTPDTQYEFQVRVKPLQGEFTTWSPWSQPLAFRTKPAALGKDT

For “IL-2 with R38 replaced with AzK, pegylated with 10 kDa mPEG (from UniProt P60568 21-153) (ligand)”, the Supplementary Table 1: βγ EC50 (nM), DiscoverX PathHunter IL-2 receptor βγ assay; row R38 in experiment [1] is 4.16 nM. In experiment [2], this substance displayed a Supplementary Table 1: αβγ EC50 (nM), DiscoverX PathHunter IL-2 receptor αβγ assay; row R38 of 0.17 nM.
For the substance “IL-2 with F42 replaced with AzK, pegylated with 10 kDa mPEG (from UniProt P60568 21-153) (ligand)”, in experiment [1], the Supplementary Table 1: βγ EC50 (nM), DiscoverX PathHunter IL-2 receptor βγ assay; row F42 was found to be 6.09 nM. The substance further had a Supplementary Table 1: αβγ EC50 (nM), DiscoverX PathHunter IL-2 receptor αβγ assay; row F42 in experiment [2] of 0.52 nM.
The substance “IL-2 P65 AzK (replacement of proline 65 with AzK, without PEG attachment) (from UniProt P60568 21-153) (ligand)” gave a potency (EC50) of pSTAT5 induction in Treg cells of human PBMC, PEG size study in experiment [3] of 5450 pg/mL.
In the case of “IL-2 with T41 replaced with AzK, pegylated with 10 kDa mPEG (from UniProt P60568 21-153) (ligand)”, in experiment [1], the Supplementary Table 1: βγ EC50 (nM), DiscoverX PathHunter IL-2 receptor βγ assay; row T41 was determined as 6.37 nM. In experiment [2], this substance returned a Supplementary Table 1: αβγ EC50 (nM), DiscoverX PathHunter IL-2 receptor αβγ assay; row T41 of 0.05 nM.
On to “IL-2 with E68 replaced with AzK, pegylated with 30 kDa mPEG (from UniProt P60568 21-153) (ligand)”, for which the Supplementary Table 1: βγ EC50 (nM), DiscoverX PathHunter IL-2 receptor βγ assay; row E68* in experiment [1] is 7.7 nM. Further, the Supplementary Table 1: αβγ EC50 (nM), DiscoverX PathHunter IL-2 receptor αβγ assay; row E68* in experiment [2] was found to be 0.09 nM.
For “IL-2 with Y45 replaced with AzK, pegylated with 10 kDa mPEG (from UniProt P60568 21-153) (ligand)”, the Supplementary Table 1: βγ EC50 (nM), DiscoverX PathHunter IL-2 receptor βγ assay; row Y45 in experiment [1] was found to be 9.06 nM. The Supplementary Table 1: αβγ EC50 (nM), DiscoverX PathHunter IL-2 receptor αβγ assay; row Y45 in experiment [2] was determined as 0.11 nM.
In the case of “IL-2 with K35 replaced with AzK, pegylated with 10 kDa mPEG (from UniProt P60568 21-153) (ligand)”, the Supplementary Table 1: βγ EC50 (nM), DiscoverX PathHunter IL-2 receptor βγ assay; row K35 in experiment [1] was 6.75 nM.
“IL-2 with E62 replaced with AzK, pegylated with 10 kDa mPEG (from UniProt P60568 21-153) (ligand)” showed a Supplementary Table 1: βγ EC50 (nM), DiscoverX PathHunter IL-2 receptor βγ assay; row E62 in experiment [1] of 3 nM.
The substance “IL-2 with K43 replaced with AzK, pegylated with 10 kDa mPEG (from UniProt P60568 21-153) (ligand)” came in with a Supplementary Table 1: βγ EC50 (nM), DiscoverX PathHunter IL-2 receptor βγ assay; row K43 in experiment [1] of 9.84 nM. This substance gave a Supplementary Table 1: αβγ EC50 (nM), DiscoverX PathHunter IL-2 receptor αβγ assay; row K43 in experiment [2] of 0.13 nM.
In experiment [1], “IL-2 with V69 replaced with AzK, pegylated with 30 kDa mPEG (from UniProt P60568 21-153) (ligand)” returned a Supplementary Table 1: βγ EC50 (nM), DiscoverX PathHunter IL-2 receptor βγ assay; row V69* of 9.99 nM. For the same substance, the Supplementary Table 1: αβγ EC50 (nM), DiscoverX PathHunter IL-2 receptor αβγ assay; row V69* in experiment [2] was determined as 0.08 nM.
In experiment [1], “IL-2 with E62 replaced with AzK, pegylated with 30 kDa mPEG (from UniProt P60568 21-153) (ligand)” showed a Supplementary Table 1: βγ EC50 (nM), DiscoverX PathHunter IL-2 receptor βγ assay; row E62* of 7.46 nM. For the same substance, the Supplementary Table 1: αβγ EC50 (nM), DiscoverX PathHunter IL-2 receptor αβγ assay; row E62* in experiment [2] worked out at 2.84 nM.
